Reference: patent US20250084158A1 (ABL BIO, published 2025)
One block for each binder: values may come before it.

What was measured:
human CLL-1 on cells [1] = target: T1, human CLL-1 on cells (human, UniProt Q5QGZ9 1-265); assay: cell-based or functional assay
T1 sequence (looked up): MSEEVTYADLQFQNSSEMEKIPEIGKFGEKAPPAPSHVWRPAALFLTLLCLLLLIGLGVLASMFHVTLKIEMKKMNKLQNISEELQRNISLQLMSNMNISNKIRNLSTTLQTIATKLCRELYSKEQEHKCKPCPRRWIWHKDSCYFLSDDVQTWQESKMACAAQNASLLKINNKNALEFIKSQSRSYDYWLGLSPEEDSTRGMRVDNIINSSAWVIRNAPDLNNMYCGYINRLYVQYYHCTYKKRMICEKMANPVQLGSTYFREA

human CLL-1 on cells [2] = target: T1, human CLL-1 on cells; assay: hybridoma screening, ELISA and FACS
human CLL-1 on cells [3] = target: T1, human CLL-1 on cells; assay: FACS, PL21 cells (2nd Ab only 2.82)
Procedure: (§1) To evaluate cell binding property, the chimeric antibody candidates of Example 1.2. were analyzed in CLL1 negative cells (HEK293E and Jurkat) and various CLL1 expressing cancer cells by using FACS.
(§2) Briefly, cells were incubated with antibodies at 4° C. for 1 hr. Firstly, the cells were washed with an assay buffer (1% BSA in PBS). Then, an anti-human IgG Fc conjugated with FITC (Fluorescein isothiocyanate) (Sigma, F9512) was added to each well and incubated at 4° C. for 1 hr. After wash, the MFI (Median Fluorescence Intensity) of FITC was measured by BD FACS Cal ibur (BD Biosciences).

human CLL-1 on cells [4] = target: T1, human CLL-1 on cells; assay: FACS, U937 cells (2nd Ab only 4.77)
Procedure: as §1, §2

human CLL-1 on cells [5] = target: T1, human CLL-1 on cells; assay: FACS, EOL-1 cells (2nd Ab only 2.53)
Procedure: as §1, §2

human CLL-1 on cells [6] = target: T1, human CLL-1 on cells; assay: FACS, huCLL1_293E cells (2nd Ab only 5.05)
Procedure: as §1, §2

human CLL-1 on cells [7] = target: T1, human CLL-1 on cells; assay: FACS, OCI-AML2 cells (2nd Ab only 3.28)
Procedure: as §1, §2

human CLL-1 on cells [8] = target: T1, human CLL-1 on cells; assay: FACS, HL60 cells (2nd Ab only 5.09)
Procedure: as §1, §2

ADCC reporter bioassay (luminescence), EC50 (human CLL-1 on cells [1]): 0.141 nM
B1: hu33C2 (VH3/VL6 (M12)) (antibody, V domains shown)
VH: QVQLVQSGAEVKKPGASVKVSCKASGYSFTGYAMNWVRQAPGQRLEWIGLINPYNGGAMYNQKFKGRATLTVDTSASTAYMELSSLRSEDTAVYYCARDYRYEGHLDYWGQGTLVTVSS
VL: EIVLTQSPATLSLSPGERATLSCSATSSVSYMHWYQQKPGQAPRRWIYDTSKLASGIPARFSGSGSGTSYTLTISSLEPEDFAVYYCQQWSSDSPTFGQGTKLEIK

binding result (human CLL-1 on cells [2]): binds
B2: 33C2 (mouse hybridoma clone) (antibody, V domains shown)
VH: EVQLQQSGPELVKPGASMKISCKASGYSFTGYAMNWVKQSHGKNLEWIGLINPYNGGAMYNQKFKGKATLTVDKSTSTAYMELLSLTSEDSAVYYCARDYRYDGHLDYWGQGTTLTVSS
VL: QIVLTQSPVIMSASPGEKVTMTCSATSSVSYMHWYQQKSGTSPKRWIYDTSKLASGVPVRFSGSGSGTSYSLTISRMEAEDAATYYCQQWSSDSPTFGVGTKLELK
notes: Mouse monoclonal antibody from a Balb/c hybridoma; also called murine 33C2

binding result (human CLL-1 on cells [2]): binds
B3: 16C6 (mouse hybridoma clone) (antibody, V domains shown)
VH: EVQLQQSGPELVKPGASVKISCKASGYSFTGYYMHWVKQSHVKSLEWIGHVNPYNGATSFNRNFKDKASLTVDKSSSTAYMELHSLTSEDSAVYYCGRSADGYYERHFDYWGQGTTLTVSS
VL: DIVLTQSPASLAVSLGQRATISCKASQSVDYDGDSYMNWYQQKPGQPPKLLIYAASNLQSGIPARFSGSGSGTDFTLNIHPVEEEDAATYYCQQSDKDPLTFGAGTKLELK
notes: Mouse monoclonal antibody from a Balb/c hybridoma; also called murine 16C6

ADCC reporter bioassay (luminescence), EC50 (human CLL-1 on cells [1]): 0.13 nM
B4: hu16C6 (VH1/VL1(M14)) (antibody, V domains shown)
VH: QVQLVQSGAEVKKPGASVKISCKASGYSFTGYYMHWVKQSHGQGLEWIGHVNPYNGATSFNRNFKDRASLTVDTSTSTVYMELSSLRSEDSAVYYCGRSAYGYYERHFDYWGQGTLVTVSS
VL: DIVMTQSPDSLAVSLGERATINCKASQSVDYDADSYMNWYQQKPGQPPKLLIYAASNLQSGVPDRFSGSGSGTDFTLTISSLQAEDVAVYYCQQSDRDPLTFGGGTKLEIK

ADCC reporter bioassay (luminescence), EC50 (human CLL-1 on cells [1]): 0.416 nM
B5: ch84A2 (N12S) (antibody, V domains shown)
VH: EVQLQQSGPELVKSGASVKMSCKASGYTFTSYVIHWVKQMPGQGLEWIGLFNPYNDDVNYNEKFKGKATLTSDKYSSTAYLDLSSLTSEDSAVYYCAREGVHYGRPWFGYWGQGTLVTVSA
VL: DIKMTQSPSSMSASLGERVTITCKASQDIKSYLNWFQQKPGKSPKTLIYRASRLVDGVPARFSGSESGQDYSLTISSLEFEDMGIYYCLQYDEFPLTFGAGTKLELK

MFI(FL1-H) (human CLL-1 on cells [3]): 27.6
MFI(FL1-H) (human CLL-1 on cells [4]): 30.5
MFI(FL1-H) (human CLL-1 on cells [5]): 3.36
MFI(FL1-H) (human CLL-1 on cells [6]): 72.5
MFI(FL1-H) (human CLL-1 on cells [7]): 13
MFI(FL1-H) (human CLL-1 on cells [8]): 14.5
B6: ch84A2(NA/N12S) (antibody, human IgG1, kappa, N297A, V domains shown)
VH: B5 VH
VL: DIKMTQSPSSMSASLGERVTITCKASQDIKSYLNWFQQKPGKSPKTLIYRASRLVDGVPARFSGSESGQDYSLTISSLEFEDMGIYYCLQYDEFPLTFGAGTKLELKR
notes: Chimeric, human IgG1 N297A and human kappa; also called ch84C2; chimeric antibody of 84A2
